{
  "source": "paper PMC12901202",
  "molecular_target": "SARS-CoV-2 JN.1 RBD, biotinylated (SARS-CoV-2) (UniProt P0DTC2)",
  "assay": "BLI; […]; 300 s association, 300 s dissociation; 10x kinetics buffer; […]; global fit, 1:1 model; […]",
  "data": [
    {"substance": "TRI2-2 homotrimeric miniprotein inhibitor (designed binder)", "values": [
      {"measurement": "Kd", "value": 6.19, "unit": "nM"},
      {"measurement": "koff", "value": 0.00175, "unit": "s⁻¹"},
      {"measurement": "kon", "value": 282000, "unit": "M⁻¹ s⁻¹"}
    ]}
  ]
}
